Source: US20220306734A1 (H LUNDBECK A S, published 2022)
Substitutions are numbered along the chain they refer to. Where two headings read alike, the source gives them in different places. One block for each binder: values may come before it.

What was measured:
[1] = target: T1, rat mGluR5 extracellular domain (rat-mGluR5-ECD) (rat, UniProt P31424 21-504); test: HTRF, soluble ECD
T1 construct: ECD construct made 'in a similar fashion' to the human one
Procedure: (§1) Binding of antibodies to mGluR5/mGluRJ measured via Homogeneous Time-Resolved Fluorescence (HTRF). Binding assays were performed using HTRF reagents from CisBio. Ten microliters of an antibody dilution series (highest final concentration of 30 nM) was incubated with 10 μl of mGluR-ECD (10 nM final concentration) in HTRF buffer (50 mM Phosphate buffer pH7, 0.8M KF (potassium fluoride), 0.2% BSA). Twenty microliters of Europium-labeled anti-hu-Fc donor (2 nM final concentration, CisBio Catalog No. 61HFCKLB) and 20 μl of XL665-labeled anti-Flag acceptor (60 nM final concentration, CisBio Catalog No. 61FG2XLB) were added to each well and incubated for 1 hour at room temperature. Alternatively, the antibody dilution series was incubated with 10 μl of biotinylated mGluR-ECD (10 nM final concentration), and 20 μl of Europium-labeled anti-hu-Fc donor (2 nM final concentration) and 20 μl of d2-labeled streptavidin acceptor (60 nM final concentration, CisBio Catalog No. 610SADLB) were added to each well. Fluorescence was measured at 620 and 665 nm with a delay of 300 μsec. Results were expressed as the ratio of signal at 665 nm over 620 nm. EC₅₀ values were calculated for binding of Ab1-Ab23 to human-mGluR5-ECD, of Ab1-Ab21 to rat-mGluR5-ECD, and of Ab1, Ab2 and Ab4-Ab12 to monkey-mGluR5-ECD and to human-mGluR1-ECD (TABLE 1).

[2] = target: full-length (FL) human mGluR5 on BA/F3-mGluR5 clone 10C9 cells (human) (UniProt P41594); test: flow cytometry, BA/F3-mGluR5 10C9 cells, 10 ug/ml antibody
[3] = target: full-length (FL) human mGluR5 on BA/F3-mGluR5 clone 10C9 cells (human) (UniProt P41594); test: cell-based or functional assay
[4] = target: human mGluR5 extracellular domain (human-mGluR5-ECD) (human) (UniProt P41594); test: HTRF, soluble ECD
human mGluR5 extracellular domain (human-mGluR5-ECD) (human), sequence (P41594 other isoform, or with tags, fused parts or gaps): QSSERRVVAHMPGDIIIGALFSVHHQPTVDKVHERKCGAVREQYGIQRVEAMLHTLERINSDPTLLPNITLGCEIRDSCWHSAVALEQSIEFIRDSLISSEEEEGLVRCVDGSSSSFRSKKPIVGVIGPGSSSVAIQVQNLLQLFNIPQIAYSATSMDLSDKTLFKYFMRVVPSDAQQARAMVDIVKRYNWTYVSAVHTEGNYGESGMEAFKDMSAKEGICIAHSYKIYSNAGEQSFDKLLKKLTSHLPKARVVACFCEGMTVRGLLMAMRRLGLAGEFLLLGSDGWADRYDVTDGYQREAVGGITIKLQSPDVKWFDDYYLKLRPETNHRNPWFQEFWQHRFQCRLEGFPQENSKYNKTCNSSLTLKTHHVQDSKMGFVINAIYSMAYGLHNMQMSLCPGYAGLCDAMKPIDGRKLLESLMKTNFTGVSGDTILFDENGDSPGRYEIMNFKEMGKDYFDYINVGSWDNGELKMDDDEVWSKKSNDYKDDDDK

[5] = target: human mGluR5 extracellular domain (human-mGluR5-ECD) (human) (UniProt P41594); test: HTRF, soluble ECD; remark: listed apart in the source
[6] = target: T2, human mGluR1 extracellular domain (human-mGluR1-ECD) (human, UniProt Q13255 19-592, limits assumed); test: HTRF, soluble ECD
T2 construct: ECD construct made 'in a similar fashion' to the human mGluR5 one; also called hu-mGluR1
T2 sequence (Q13255 other isoform, or with tags, fused parts or gaps limits assumed): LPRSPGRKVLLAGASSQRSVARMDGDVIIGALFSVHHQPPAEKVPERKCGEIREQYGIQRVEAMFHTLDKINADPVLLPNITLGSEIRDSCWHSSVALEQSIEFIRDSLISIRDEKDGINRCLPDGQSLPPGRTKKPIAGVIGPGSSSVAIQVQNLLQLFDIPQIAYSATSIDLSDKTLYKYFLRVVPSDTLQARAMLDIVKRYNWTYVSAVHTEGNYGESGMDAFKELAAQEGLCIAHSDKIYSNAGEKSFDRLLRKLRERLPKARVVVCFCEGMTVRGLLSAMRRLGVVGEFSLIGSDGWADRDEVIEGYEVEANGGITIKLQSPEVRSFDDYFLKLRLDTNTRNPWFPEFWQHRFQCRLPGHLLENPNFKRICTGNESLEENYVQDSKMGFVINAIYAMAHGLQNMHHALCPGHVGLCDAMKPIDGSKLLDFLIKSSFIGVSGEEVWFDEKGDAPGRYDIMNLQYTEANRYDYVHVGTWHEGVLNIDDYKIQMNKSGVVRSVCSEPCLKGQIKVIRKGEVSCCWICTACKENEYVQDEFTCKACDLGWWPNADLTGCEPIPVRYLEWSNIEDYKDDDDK
Procedure: as §1

[7] = target: T3, cynomolgus monkey mGluR5 extracellular domain (monkey-mGluR5-ECD) (cynomolgus monkey, UniProt P41594 21-580 (human entry), limits assumed); test: HTRF, soluble ECD
T3 construct: ECD construct made 'in a similar fashion' to the human one; also called cyno-mGluR5
T3 sequence (P41594 other isoform, or with tags, fused parts or gaps limits assumed): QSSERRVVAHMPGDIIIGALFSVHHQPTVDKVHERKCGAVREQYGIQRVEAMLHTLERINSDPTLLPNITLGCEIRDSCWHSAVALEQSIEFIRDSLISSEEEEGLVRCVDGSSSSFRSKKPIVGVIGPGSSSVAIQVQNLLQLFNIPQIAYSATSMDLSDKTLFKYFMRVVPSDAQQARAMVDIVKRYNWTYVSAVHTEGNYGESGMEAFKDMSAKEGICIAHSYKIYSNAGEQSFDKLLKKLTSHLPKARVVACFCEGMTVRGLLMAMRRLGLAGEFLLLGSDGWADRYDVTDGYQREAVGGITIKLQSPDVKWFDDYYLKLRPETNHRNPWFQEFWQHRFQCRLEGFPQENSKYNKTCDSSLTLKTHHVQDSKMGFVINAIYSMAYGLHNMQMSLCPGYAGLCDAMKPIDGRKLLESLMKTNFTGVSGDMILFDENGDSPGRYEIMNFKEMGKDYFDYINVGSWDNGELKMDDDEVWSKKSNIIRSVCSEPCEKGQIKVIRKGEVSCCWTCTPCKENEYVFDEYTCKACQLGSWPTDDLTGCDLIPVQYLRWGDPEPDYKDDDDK
Procedure: as §1

T1 sequence (P31424 other isoform, or with tags, fused parts or gaps limits assumed, form in doubt): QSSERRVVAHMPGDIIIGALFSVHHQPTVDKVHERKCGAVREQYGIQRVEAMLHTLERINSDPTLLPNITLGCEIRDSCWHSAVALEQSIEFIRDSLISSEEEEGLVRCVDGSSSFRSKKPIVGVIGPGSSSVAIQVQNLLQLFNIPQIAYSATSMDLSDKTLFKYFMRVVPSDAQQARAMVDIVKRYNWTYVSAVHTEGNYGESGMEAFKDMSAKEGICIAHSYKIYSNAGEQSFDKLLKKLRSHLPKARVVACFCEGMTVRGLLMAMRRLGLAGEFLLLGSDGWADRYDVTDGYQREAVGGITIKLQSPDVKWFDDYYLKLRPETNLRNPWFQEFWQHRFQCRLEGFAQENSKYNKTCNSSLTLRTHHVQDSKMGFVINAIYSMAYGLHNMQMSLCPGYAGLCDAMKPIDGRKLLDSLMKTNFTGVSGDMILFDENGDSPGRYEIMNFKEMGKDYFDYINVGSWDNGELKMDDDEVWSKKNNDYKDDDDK

B1: mGluR5 Ab13 (antibody, V domains shown)
VH: QSLEESGGDLVKPGASLTLTCTASGFSFSSSDYMCWVRQAPGKGLEWIGCIYTGDGTTYYASWAKGRFTISKTSSTTVTLQMTSLTAADTATYFCARGAGVGSYGYNLWGPGTLVTVSS
VL: DIVMTQTPASVEAAVGDTVTINCQASQNIYSNLAWYQQKPGQPPKLLIYRASTLASGVPSRFKGSGSGTQFTLTISDLECADAATYYCQSYYASSISNYFGGGTEVVVKR
notes: Rabbit variable regions on human heavy and light chain constant regions (chimeric)
EC50 [1]: 0.283 nM
mGluR5 (FL) cell binding-fold over background [2]: 37.4 fold
pERK Assay Inhibition IC50-nM [3]: 0.22 nM
EC50 [4]: 0.183 nM
EC50 [5]: < 2 nM

B3: mGluR5 Ab19 (antibody, V domains shown)
VH: QEQLEESGGDLVKPEGSLTLTCTASGFSFSNYYYMCWVRQAPGKGLEWIACIYTSSGSTYYANWVNGRFTISRSTSLNTVTLQVTSLTAADTATYFCAKSFGVGGYSFNLWGQGTLVTVSS
VL: AYDMTQTPASVEVAVGGTVTIKCQASQSISSYLSWYQQKPGQRPKLLIYRASTLASGVSSRFKGSGSGTEYSLSISGMECDDAATYYCQQGTTISDVDNVFGGGTEVVVKR
notes: as for B1
EC50 [1]: 0.327 nM
mGluR5 (FL) cell binding-fold over background [2]: 38.3 fold
pERK Assay Inhibition IC50-nM [3]: 1.07 nM
EC50 [4]: 0.453 nM
EC50 [5]: < 2 nM

B4: mGluR5 Ab8 (antibody, V domains shown)
VH: QSVEESGGRLVTPGTPLTLTCSVSGIDLSSYAMSWVRQAPGKGLEWIGVIYASGSTYYASWAKGRFTISKTSTTVDLKITSPTTGDTATYFCVRDTTATYNYFNLWGQGTLVTVSS
VL: AYDMTQTPASVEVAVGGTATIKCQASQSIYNYLAWYQQKPGQPPKLLIYEASTLASGVPSRFKGSGSGTEFTLTISDLECADAATYYCQQSLSPSNVGRRVFGGGTEVVVKR
notes: as for B1
binding result [6]: no binding
EC50 [7]: 0.322 nM
mGluR5 (FL) cell binding-fold over background [2]: 32.1 fold
pERK Assay Inhibition IC50-nM [3]: 2.29 nM
EC50 [4]: 0.748 nM
EC50 [5]: < 2 nM

B5: mGluR5 Ab1 (antibody, V domains shown)
VH: QQQLEESGGGLVKPGGTLTLTCKVSGIDFSSYYYMCWVRQAPGKGLEWIACIYAGDGGTYYASWAKGRFTSSKTSSTTVTLQMTSLTAADTATYFCARGSGVGSYGYSLWGPGTLVTVSS
VL: DIVMTQTPASVEAAVGGTVTIKCQASESIYSNLAWYQQKPGQPPKLLIYRASNLESGVPSRFKGSGSGTEFTLTISDLECADAATYYCQGYYASTTTNAFGGGTEVVVKR
notes: as for B1
EC50 [1]: 0.497 nM
binding result [6]: no binding
EC50 [7]: 0.371 nM
mGluR5 (FL) cell binding-fold over background [2]: 40.8 fold
pERK Assay Inhibition IC50-nM [3]: 0.14 nM
EC50 [4]: 0.269 nM
EC50 [5]: < 2 nM

B6: mGluR5 Ab14 (antibody, V domains shown)
VH: B5 VH with V24G, S30N, S31D, A54N, G58E, S63N, S71I, S108N, L109F, P112Q
VL: B5 VL with E55A, T96V
notes: as for B1
EC50 [1]: 0.308 nM
mGluR5 (FL) cell binding-fold over background [2]: 40.6 fold
pERK Assay Inhibition IC50-nM [3]: 0.15 nM
EC50 [4]: 0.371 nM
EC50 [5]: < 2 nM

B8: mGluR5 Ab17 (antibody, V domains shown)
VH: B5 VH with Q2R, T17A, V24A, M35I, G58T, S63T, K66E, S108N, P112Q
VL: B5 VL with S28Y, N53T, Y92F, A93P, T95I, T96I
notes: as for B1
EC50 [1]: 0.305 nM
mGluR5 (FL) cell binding-fold over background [2]: 40.4 fold
pERK Assay Inhibition IC50-nM [3]: 0.15 nM
EC50 [4]: 0.312 nM
EC50 [5]: < 2 nM

B10: mGluR5 Ab15 (antibody, V domains shown)
VH: QQLVESGGGLVKPGGTLTLTCKGSGIDFNDYYYICWVRQAPGKGLEWILCIYNGDGETYYANWAKGRFTISKTSSTTVTLQMTSLTGADTATYFCARGSGVGSYGYNFWGQGTLVTVSS
VL: B5 VL with S28N, E55A, T96V, A99G
notes: as for B1
EC50 [1]: 0.448 nM
mGluR5 (FL) cell binding-fold over background [2]: 41.3 fold
pERK Assay Inhibition IC50-nM [3]: 0.18 nM
EC50 [4]: 0.506 nM
EC50 [5]: < 2 nM

B11: mGluR5 Ab21 (antibody, V domains shown)
VH: QSLEESGGGLVQPGASLTLTCTASGFSFSSNYWICWVRQAPGKGLEWIGCIYTGTGITWYASWVNGRVTISSTSSTTVTLQVNSLTAADTATYFCARGSGDIAWAWDLWGQGTLVTVSS
VL: DVVMTQTPASVSAAVGGTVTIKCQASQSIYTNLAWYQQKPGQPPKLLIYKASTLASGVSSRFKGSGSGTEFTLTISGVQCADAATYYCQCTGYGSSGWTFGGGTEVVVKR
notes: as for B1
EC50 [1]: 0.229 nM
mGluR5 (FL) cell binding-fold over background [2]: 34.2 fold
pERK Assay Inhibition IC50-nM [3]: 1.41 nM
EC50 [4]: 0.684 nM
EC50 [5]: < 2 nM

B13: mGluR5 Ab3 (antibody, V domains shown)
VH: QSLEESGGRLVTPGTPLTLTCTVSGIDLSSYAVGWVRQAPGKGLEYIGIIYASGNTWYASWVKGRFTISKTSTTVDLKLASLTTEDTATYFCARGHGATYDYFNLWGPGTLVTVSS
VL: AYDMTQTPASVEVAVGGTVTIKCQASQSISSYLAWYQQKPGQPPKLLIYDASDLASGVPSRFKGSGSGTEYTLTISGVQCDDAATYYCQQGLATANVDNVFGGGTEVVVKR
notes: as for B1
EC50 [1]: 0.487 nM
mGluR5 (FL) cell binding-fold over background [2]: 31.1 fold
pERK Assay Inhibition IC50-nM [3]: 3.91 nM
EC50 [4]: 0.536 nM
EC50 [5]: < 2 nM

The remaining binders from weak to strong by EC50 [4], led by results:

EC50 [1]: 0.395 nM
mGluR5 (FL) cell binding-fold over background [2]: 39.6 fold
pERK Assay Inhibition IC50-nM [3]: 0.15 nM
EC50 [4]: 0.491 nM
EC50 [5]: < 2 nM
B7: mGluR5 Ab18 (antibody, V domains shown)
VH: QQQLEESGGGLVKPGGTLTLTCKASGLDFSNYHYMCWVRQAPGKRPEWIACIYNGDGTTYDASWAKGRFTSSKTSSTTVTLQMTSLTAADTATYFCARGSGVGSYGYNLWGQGTLVTVSS
VL: B5 VL with N53T, T95I, T96I
notes: as for B1

EC50 [1]: 0.427 nM
mGluR5 (FL) cell binding-fold over background [2]: 40 fold
pERK Assay Inhibition IC50-nM [3]: 0.17 nM
EC50 [4]: 0.439 nM
EC50 [5]: < 2 nM
B12: mGluR5 Ab16 (antibody, V domains shown)
VH: QSVEESGGRLVTPGTPLTLTCTASGFTISSYSMIWVRQAPGKGLESIGWINTGGSAYYANWAKGRFTISRTSTTVDLKMTSLTTEDTATYFCARDNNWSFNLWGQGTLVTVSS
VL: DIVMTQTPSSVSAAVGGTVTIKCQASQSIGTNLAWYQQKSGQPPKRLTYRASNLESGVPSRFKGSGSGTEFTLTISDLECADAATYYCQGGYYREGNSPTYPFGGGTEVVVKR
notes: as for B1

mGluR5 (FL) cell binding-fold over background [2]: 37.9 fold
pERK Assay Inhibition IC50-nM [3]: 0.14 nM
EC50 [4]: 0.367 nM
EC50 [5]: < 2 nM
B9: mGluR5 Ab23 (antibody, V domains shown)
VH: B7 VH with L27I, S30N, N31D, H33Y, R45G, T58D, D61Y, S63N, S71I
VL: B5 VL with N53T, E55A, T96I, A99V

mGluR5 (FL) cell binding-fold over background [2]: 26.1 fold
pERK Assay Inhibition IC50-nM [3]: 2.36 nM
EC50 [4]: 0.364 nM
EC50 [5]: < 2 nM
B2: mGluR5 Ab20 (antibody, V domains shown)
VH: QSVEESGGRLVTPGTPLTLTCTVSGFSLSDYGLNWVRQAPGKGLEWIGIIYASGSTYYANWAKGRFTISKTSTTVDLKMTSPTTEDTATYFCVRDSSATYDYFNLWGPGTLVTVSS
VL: YDMTQTPASVEVAVGGTVTIKCQASQSISSYLAWYQQKPGQPPRLLIYGASNLASGVPSRFKGSGSGTEYTLTISDLECADAATYYCQQALSPSNVDNAFGGGTEVVVKR
